Measured values from US20250136687A1 (SHANDONG SIMCERE BIOPHARMACEUTICAL, published 2025).
Read-outs that look alike come from different tables or passages of the source.

T1: monkey CD3ε protein (monkey, UniProt Q95LI5 22-117, limits assumed)
T1 sequence (looked up): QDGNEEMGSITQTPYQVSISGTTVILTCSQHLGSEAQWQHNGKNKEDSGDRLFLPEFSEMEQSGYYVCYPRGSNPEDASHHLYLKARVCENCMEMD


Columns and labels:
[1] = target: T2, recombinant human CD3ε-ECD His protein (human, UniProt P07766 23-126); experiment: SPR (Biacore), antibody captured on Protein A chip
T2 construct: extracellular domain; also called human CD3ε-His; CD3ε antigen protein; not shown: His tag
Procedure: Sample buffer and running buffer were HBS-EP+(10 mM HEPES, 150 mM NaCl, 3 mM EDTA, 0.05% surfactant P20) (GE Healthcare; BR-1006-69). The flow-through cell was set to 25° C. The sample block was set to 16° C. Both were pretreated with the running buffer. In each cycle, the antibody to be detected was first captured with a Protein A chip, and then a single concentration of CD3ε antigen protein (purchased from Sino Biological, Inc. (China), catalog number: 10977-H08H) was injected. The binding and dissociation processes of the antibody and the antigen protein were recorded, and finally a glycine solution (pH 1.5, GE Healthcare; BR-1003-54) was used to complete chip regeneration. The binding was measured by injecting different concentrations of recombinant human CD3ε-ECD His proteins in a solution for 240 s with a flow rate of 30 μL/min. The concentration started from 200 nM (see the detailed results for the actual concentration in the test) and was diluted at 1:1, making a total of 5 concentrations. The dissociation phase was monitored for up to 600 s and was triggered by switching from sample solution to running buffer. The surface was regenerated by washing with a 10 mM glycine solution (pH 1.5) for 30 s at a flow rate of 30 μL/min. Bulk refractive index difference was corrected by subtracting the response obtained from the goat anti-human Fc surface. Blank injection was also subtracted (=double reference). For calculation of apparent KD and other kinetic parameters, Langmuir 1:1 model was used.

[2] = target: T3, human CD3 on the cell surface (Jurkat cells, expanded human T cells, Jurkat-Lucia NFAT cells, human PBMC) (human, UniProt P07766 23-207; P04234 22-171; P09693 23-182); experiment: FACS, Jurkat cells
T3 construct: whole, on cells; Endogenous CD3 within the TCR-CD3 complex on cells (also zeta chains and TCR); the cell type is named under assay
Procedure: (§1) The binding of the chimeric antibodies to CD3 on the cell surface was analyzed by detecting the binding of the antibodies to Jurkat cells and human T cells. Suspension cells Jurkat cells were scale-up cultured in T-75 cell culture flasks to the logarithmic growth phase, the supernatant of the medium was discarded by centrifugation, and the cell pellet was washed 2 times with PBS for later use. The expanded human T cells were washed 2 times with PBS for later use. After counting the cells in the previous step, the cell pellet was resuspended with [PBS+2% (w/w) BSA] blocking solution to 4×10⁶ cells/ml, and added to a 96-well FACS reaction plate at 50 μl/well, and then the chimeric antibody to be tested was added at 50 μl/well, and incubated at 4° C. for 1 h. The cells were centrifuged and washed 3 times with a PBS buffer. […] The cells were centrifuged and washed 5 times with PBS, and FACS (FACS Canto™, purchased from BD Company) was used for detection and result analysis. Data analysis was performed by software (CellQuest) to obtain the mean fluorescence […] (MFI) of the cells. And then software (GraphPad Prism8) was used for analysis, data fitting, and EC50 value calculation. The same method was used to simultaneously detect the binding of the chimeric antibodies to endogenous CD3 negative cells MOLT4 cells.

[3] = target: T4, cynomolgus monkey CD3 on the surface of expanded monkey T cells (cynomolgus monkey, UniProt Q95LI5 22-198; Q95LI8 22-171; Q95LI7 23-181); experiment: FACS, expanded monkey T cells
T4 construct: whole, on cells; Endogenous CD3 within the TCR-CD3 complex on T cells expanded from cynomolgus monkey PBMC
Procedure: as §1
FACS detection and data analysis were performed on the cryopreserved monkey T cells of Example 2.4 according to the method in Example 5.1.

[4] = target: T3, human CD3 on the cell surface (Jurkat …); experiment: FACS, expanded human T cells
Procedure: as §1

[5] = target: T3, human CD3 on the cell surface (Jurkat …); experiment: cell-based or functional assay
[6] = target: T4, cynomolgus monkey CD3 on the surface of …; experiment: FACS, expanded monkey T cells; remark: listed apart in the source
Procedure: as §1
The expanded monkey T cells were collected, and FACS detection and data analysis were performed according to the method in Example 5.1.

[7] = target: T3, human CD3 on the cell surface (Jurkat …); experiment: FACS, expanded human T cells; remark: listed apart in the source
Procedure: as §1
The expanded human PBMC cells were collected, and FACS detection and data analysis were performed according to the method in Example 5.1.

[8] = target: T2, recombinant human CD3ε-ECD His protein; experiment: SPR, antibody captured on Protein A chip
Procedure: (§2) Running buffer was HBS-EP+(10 mM HEPES, 150 mM NaCl, 3 mM EDTA, 0.05% surfactant P20) (GE Healthcare; BR-1006-69). The flow-through cell was set to 25° C. The sample block was set to 16° C. Both were pretreated with the running buffer. In each cycle, an antibody to be detected was first captured with a Protein A chip, and then a single concentration of CD3ε antigen protein was injected. The binding and dissociation processes of the antibody and the antigen protein were recorded, and finally Glycine pH 1.5 (GE Healthcare; BR-1003-54) was used to complete chip regeneration. The binding was measured by injecting different concentrations of recombinant human CD3ε proteins in a solution for 240 s with a flow rate of 30 μL/min. The concentration started from 200 nM (see the detailed results for the actual concentration in the test) and was diluted at 1:1, making a total of 5 concentrations. The dissociation phase was monitored for up to 600 s and was triggered by switching from sample solution to running buffer. The surface was regenerated by washing with a 10 mM glycine solution (pH 1.5) for 30 s at a flow rate of 30 μL/min. Bulk refractive index difference was corrected by subtracting the response obtained from the goat anti-human Fc surface, and the blank injection was subtracted at the same time (=double reference). For calculation of apparent KD value and other kinetic parameters, Langmuir 1:1 model was used.

human CD3ε/δ-His [9] = target: T5, human CD3ε/δ-His (human, UniProt P07766 23-126; P04234 22-105); experiment: SPR, antibody captured on Protein A chip
T5 construct: Bought recombinant heterodimer with His tag; also called human CD3ε/δ protein
Procedure: as §2

monkey CD3ε/δ-His = target: T6, monkey CD3ε/δ-His (monkey, UniProt Q95LI5 22-117; Q95LI8 22-105); experiment: ELISA, coated antigen
T6 construct: Bought recombinant heterodimer with His tag
Procedure: (§3) To detect the binding activity of the humanized antibodies to CD3 protein, CD3 protein was diluted with PBS to the final concentration of […], then added to a 96-well ELISA plate at 50 μL/well, and the plate was sealed with a plastic film, and incubated overnight at 4° C. On the next day, the plate was washed 2 times with PBS, and a blocking solution [PBS+2% (v/v) BSA] was added for blocking at room temperature for 2 h. The blocking solution was poured off, and the antibody (initial concentration of 100 nM, and gradient dilution at 1:10) or a negative control antibody was added at 50 µl/well. After incubation at 37° C. for 2 h, the plate was washed 3 times with PBS. […] TMB substrate was added at 50 μl/well, and incubated at room temperature for 10 min, and then a stop solution (1.0 N HCl) was added at 50 μl/well. The OD450 nm values were read by an ELISA microplate reader (Multimode Plate Reader, EnSight, purchased from Perkin Elmer).
(§4) To detect the binding activity of the humanized antibodies to monkey CD3 protein, CD3 protein was diluted with PBS to the final concentration of […], and then added to a 96-well ELISA plate at 50 μl/well.

monkey CD3ε protein = target: T1, monkey CD3ε protein; experiment: ELISA, coated antigen
Procedure: as §3, §4

[10] = target: T2, recombinant human CD3ε-ECD His protein; experiment: ELISA, coated antigen
Procedure: as §3

human CD3ε/δ-His [11] = target: T5, human CD3ε/δ-His; experiment: ELISA, coated antigen
Procedure: as §3

T5 sequence (P07766 23-126, stated change not applied, form in doubt, chain 1 of 2): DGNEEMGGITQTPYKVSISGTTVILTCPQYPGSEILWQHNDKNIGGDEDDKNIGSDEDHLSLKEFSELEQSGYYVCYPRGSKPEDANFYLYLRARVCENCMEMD
T5 sequence (P04234 22-105, stated change not applied, form in doubt, chain 2 of 2): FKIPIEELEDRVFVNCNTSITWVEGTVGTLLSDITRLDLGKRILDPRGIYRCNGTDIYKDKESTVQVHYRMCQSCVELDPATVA
T2 sequence (P07766 23-126): as the sequence (P07766 23-126, stated change not applied, form in doubt, chain 1 of 2) above
T6 sequence (Q95LI8 22-105, stated change not applied, form in doubt, chain 2 of 2, one chain of several): as the sequence (P04234 22-105, stated change not applied, form in doubt, chain 2 of 2) above, with I5V, N15K, I20V, S32T, D33N, I34N, T64A, S74N, V83L counted along it
T4 sequence (Q95LI5 22-198, chain 1 of 3): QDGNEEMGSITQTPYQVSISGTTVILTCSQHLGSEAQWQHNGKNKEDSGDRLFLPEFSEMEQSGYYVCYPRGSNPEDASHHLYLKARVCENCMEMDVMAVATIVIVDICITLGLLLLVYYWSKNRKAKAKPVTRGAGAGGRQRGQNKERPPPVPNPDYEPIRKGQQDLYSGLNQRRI
T4 sequence (Q95LI8 22-171, chain 2 of 3): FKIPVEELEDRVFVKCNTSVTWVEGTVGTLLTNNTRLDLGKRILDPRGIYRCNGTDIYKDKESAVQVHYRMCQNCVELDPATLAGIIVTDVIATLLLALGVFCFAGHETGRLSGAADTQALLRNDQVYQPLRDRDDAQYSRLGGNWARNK
T4 sequence (Q95LI7 23-181, chain 3 of 3): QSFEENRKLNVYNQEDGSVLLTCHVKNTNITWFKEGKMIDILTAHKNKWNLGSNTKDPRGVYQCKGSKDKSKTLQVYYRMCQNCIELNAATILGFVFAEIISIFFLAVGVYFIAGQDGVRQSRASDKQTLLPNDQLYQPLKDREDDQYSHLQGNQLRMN
T3 sequence (P07766 23-207, chain 1 of 3): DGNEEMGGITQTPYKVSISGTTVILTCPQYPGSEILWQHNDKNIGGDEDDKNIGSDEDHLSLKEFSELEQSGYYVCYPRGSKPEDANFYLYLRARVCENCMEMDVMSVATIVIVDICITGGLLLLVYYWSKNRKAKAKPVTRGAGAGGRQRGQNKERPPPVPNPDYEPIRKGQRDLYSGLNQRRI
T3 sequence (P04234 22-171, chain 2 of 3): as the sequence (Q95LI8 22-171, chain 2 of 3) above, with V5I, K15N, V20I, T32S, N33D, N34I, A64T, N74S, L83V, R141H counted along it
T3 sequence (P09693 23-182, chain 3 of 3): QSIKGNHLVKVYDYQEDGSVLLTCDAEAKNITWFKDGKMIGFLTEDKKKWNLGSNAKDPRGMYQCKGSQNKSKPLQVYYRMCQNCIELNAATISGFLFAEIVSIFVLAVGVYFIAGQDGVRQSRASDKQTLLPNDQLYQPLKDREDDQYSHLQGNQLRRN

Binder | Kd [1] | koff [1] | kon [1] | EC50 [2] | MFI_Max [2] | EC50 [3] | MFI_Max [3] | EC50 [4] | MFI_Max [4] | EC50 (nM), luciferase reporter, Jurkat-Lucia NFAT cells [5] | Maximum response value (RLU) [5] | EC50 [6] | max_MFI [6] | EC50 [7] | max_MFI [7] | Kd [8] | koff [8] | kon [8] | Kd (human CD3ε/δ-His [9]) | koff (human CD3ε/δ-His [9]) | other results
5-7.13 human-murine chimeric antibody (antibody, human IgG1, kappa, V domains shown, Human IgG1 chimera) VH: QVQLQQPGTELVKPGASVKLSCKASGYTFTSYWVHWVKQRPGQGLEWIGNINPSDGVTNYNEKFKSRATLTVDKSSSTAYMQLSSLTSEDSAVYYCTRDAYGQYYFDDWGQGTTLTVSS VL: DIVMSQSPSSLVVSAGEKVTMSCKSSQSLLNSRTRKNYLAWYQQKPGQSPKLLIYWASVRDSGVPDRFTGSGSGTDFTLTISNVQAEDLAVYYCIQSYYLRTFGGGTILEIKR | 0.345 nM | 0.00027 s⁻¹ | 785000 M⁻¹ s⁻¹ | 0.06 nM | 32200 MFI | 0.09 nM | 26500 MFI | 0.1 nM | 15900 MFI | 0.7 nM | 55400 RLU |  |  |  |  |  |  |  |  |  | 
5-40.21 human-murine chimeric antibody (antibody, human IgG1, kappa, V domains shown, Human IgG1 chimera) VH: QVQLQQPGSELVRPGASVKLSCKASGYTFTSYWMHWVKQRPGQGLEWIGNTYPGSGSTNYDEKFKSKATLTVDSSSSTAYMQLSSLTSEDSAVYYCTRDRYGVYYFDYWGQGTTLTVSS VL: DIVMSQSPSSLAVSAGEKVTMSCKSSQSLLNSRTRKNYLAWYQQKPGQSPKLLIYWASTRESGVPDRFSGSGSGTDFTLTISSVQAEDLAVYYCTQSYNLRTFGGGTKLEIKR | 0.553 nM | 0.000379 s⁻¹ | 686000 M⁻¹ s⁻¹ | 0.44 nM | 26700 MFI | 1.09 nM | 24400 MFI | 0.99 nM | 11400 MFI | 4.79 nM | 46200 RLU |  |  |  |  |  |  |  |  |  | 
6-44.5 human-murine chimeric antibody (antibody, human IgG1, kappa, V domains shown, Human IgG1 chimera) VH: EVQLQQSGPELVKPGASVKMSCKASGHTFTSHIMHWVKQKPGQGLEWIGYINPNNDRTEYSEKFKGKATLTSDKSSSTAYMELSSLTSEDSAVYYCAGEAYYSNSLYAMDYWGQGTSVTVSS VL: DIVMSQSPSSLAVSAGEKVTMSCKSSQSLFNSRTRKNYLAWYQQKPGQSPELLIYWASTRESGVPVRFTGSGSGTDFTLTISSVQAEDLAVYYCKQSYYLRTFGGGTKLEVKR | 0.445 nM | 0.000259 s⁻¹ | 581000 M⁻¹ s⁻¹ | 0.15 nM | 31700 MFI | 0.42 nM | 27100 MFI | 0.62 nM | 13300 MFI | 1.84 nM | 33600 RLU |  |  |  |  |  |  |  |  |  | 
5-40.21-H3-L1 humanized antibody (antibody, human IgG1, kappa, V domains shown) VH: EVQLVQSGAEVKKPGASVKVSCKASGYTFTSYWMHWVRQAPGQGLEWMGNTYPGSGSTNYDEKFKSRVTITVDSSASTAYMELSSLRSEDTAVYYCTRDRYGVYYFDYWGQGTTVTVSS VL: DIVMTQSPDSLAVSLGERATINCKSSQSLLNSRTRKNYLAWYQQKPGQSPKLLIYWASTRESGVPDRFSGSGSGTDFTLTISSLQAEDVAVYYCTQSYNLRTFGGGTKVEIKR |  |  |  |  |  |  |  |  |  |  |  | 0.73 nM | 17800 MFI | 1.65 nM | 18000 MFI | 1.87 nM | 0.000485 s⁻¹ | 260000 M⁻¹ s⁻¹ | 115 nM | 0.0184 s⁻¹ | kon (human CD3ε/δ-His [9]): 161000 M⁻¹ s⁻¹; EC50 (monkey CD3ε/δ-His): 0.00456 nM; max-OD450 (monkey CD3ε/δ-His): 3.16 OD450; EC50 (monkey CD3ε protein): 0.000467 nM; max-OD450 (monkey CD3ε protein): 2.84 OD450; EC50 [10]: 0.13 nM; max-OD450 [10]: 1.53 OD450; EC50 (human CD3ε/δ-His [11]): 0.28 nM; max-OD450 (human CD3ε/δ-His [11]): 3.15 OD450
1-22.6-1-H2a-L2a humanized antibody (antibody, human IgG1, kappa, V domains shown, also called 1-22.6-H2a-L2a) VH: EVQLVQSGSELKKPGASVKVSCKTSGYTFTSYGMSWVRQAPGQGLEWMGWINTYSGVPTYAQDFKGRFVFSLDTSVSTAYLQISSLKAEDTAVYYCARLKNNPFVWGQGTTVTVSS VL: DIVMTQSPDSLAVSLGERATINCRSSQLILHSSGNTYLEWYQQKPGQSPKLLIYKVSNRFSGVPDRFSGSGSGTDFTLTISSLQAEDVAVYYCFQGSHFPWTFGGGTKVEIKR |  |  |  |  |  |  |  |  |  |  |  | 6.92 nM | 12300 MFI | 11 nM | 15900 MFI | 3.64 nM | 0.000305 s⁻¹ | 83600 M⁻¹ s⁻¹ | 113 nM | 0.0134 s⁻¹ | kon (human CD3ε/δ-His [9]): 119000 M⁻¹ s⁻¹; EC50 (monkey CD3ε/δ-His): 0.0124 nM; max-OD450 (monkey CD3ε/δ-His): 3.23 OD450; EC50 (monkey CD3ε protein): 0.000106 nM; max-OD450 (monkey CD3ε protein): 3.09 OD450; EC50 [10]: 0.1 nM; max-OD450 [10]: 1.49 OD450; EC50 (human CD3ε/δ-His [11]): 0.45 nM; max-OD450 (human CD3ε/δ-His [11]): 3.29 OD450
